How the values were obtained:
[1] = target: T1, puroindoline A (Triticum aestivum, UniProt P33432 29-148); assay: SPR; same sensorgrams as the kinetic fit (immobilised (PQQPY)8, PINA 2 to 20 uM flowed, 25°C, Hepes buffer pH 7.4); steady-state fit, 1:1 Langmuir model; details: both partners purified
T1 construct: puroindoline A (PINA) of Triticum aestivum, purified from grain of cv; about 13 kDa, five disulfide bonds; matured by cleavages at both N- and C-termini, with forms that differ at the C-terminus; The Pina allele of cv; also called PINA; source: purified from the hard wheat Triticum aestivum cultivar Recital
T1 sequence (looked up): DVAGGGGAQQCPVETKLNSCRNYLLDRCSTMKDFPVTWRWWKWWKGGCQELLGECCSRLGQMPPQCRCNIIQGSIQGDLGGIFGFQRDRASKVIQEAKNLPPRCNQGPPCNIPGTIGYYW

[2] = target: T1, puroindoline A; assay: SPR; Biacore X100, CM5 chip; gliadin or (PQQPY)8 covalently immobilised, PINA flowed at 10 uL/min, 25°C, Hepes buffer pH 7.4 (10 mM Hepes, 150 mM NaCl, 3.4 mM EDTA, 0.005% P20); global kinetic fit, 1:1 Langmuir model, KD=kd/ka; details: both partners purified

B1: recombinant polypeptide (PQQPY)8 (peptide)
chain: PQQPYPQQPYPQQPYPQQPYPQQPYPQQPYPQQPYPQQPY
notes: eight repeats of the pentapeptide PQQPY, written out from the printed formula (PQQPY)8; mimics the consensus repeat domain of gliadins; measured mass 4924.5 Da (theoretical 4924.3 Da); Released from thioredoxin-DP-(PQQPY)8 by formic acid; the printed theoretical mass of 4924.3 Da fits the 40 residues of eight repeats with no further residue; also called (Pro-Gln-Gln-Pro-Tyr)8; repetitive domain …
Work on B1 yielded a Kd [1] of 7.22 µM and a Kd [2] of 0.29 µM.
